Tests used:
[1] = tested on: GST:atALKBH9B wt (Arabidopsis thaliana); test: EMSA; settings: EMSA: 5 ng RNA in 10 ul Union Buffer (100 mM Tris-HCl pH 8.0, 1 M NaCl, 8 U RiboLock (so in the source)), 30 min at 4 C, 1.2% agarose; northwestern: 10 mM Tris-HCl pH …
[2] = tested on: GST:RBD (Arabidopsis thaliana); test: EMSA; settings: EMSA: 5 ng RNA in 10 ul Union Buffer (100 mM Tris-HCl pH 8.0, 1 M NaCl, 8 U RiboLock (so in the source)), 30 min at 4 C, 1.2% agarose; northwestern: 10 mM Tris-HCl pH …

Substance: 3'UTR transcript of AMV RNA3/4
- Kd [1]: 300 nM
- Kd [2]: 640 nM

Source: paper PMC8287571
